Consider 10 molecules from patent publication US12104181B2, “Compositions and methods for treating viral infections targeting TRIM7” (THE BOARD OF REGENTS OF THE UNIVERSITY OF TEXAS SYSTEM, priority 2021, dated 2024).

The test system of this assay is coxsackievirus B3 (CVB3-GFP). In kind it is cell-based. The following applies: HeLa cells, replicate R1; for Percent Infected R1: GFP-positive cells within RFP-positive gate.

Where “and” joins values, the source holds several entries; their conditions need not be identical. Identical values can stand only once.

B1: MARCH3: human RING type E3 ligase expressed from lentiviral vector (protein, UniProt Q86UD3 1-253, looked up)
E3 ubiquitin-protein ligase …: MTTSRCSHLPEVLPDCTSSAAPVVKTVEDCGSLVNGQPQYVMQVSAKDGQLLSTVVRTLATQSPFNDRPMCRICHEGSSQEDLLSPCECTGTLGTIHRSCLEHWLSSSNTSYCELCHFRFAVERKPRPLVEWLRNPGPQHEKRTLFGDMVCFLFITPLATISGWLCLRGAVDHLHFSSRLEAVGLIALTVALFTIYLFWTLVSFRYHCRLYNEWRRTNQRVILLIPKSVNVPSNQPSLLGLHSVKRNSKETVV
modifications: lentiviral expression
notes: human RING type E3 ligase expressed from lentiviral vector
B1: the “Percent Infected R1” value was 91.4% and the “Z score R1” value is given as 0.04.

B2: RNF135: human RING type E3 ligase expressed from lentiviral vector (protein, UniProt Q8IUD6 1-432, looked up)
E3 ubiquitin-protein ligase …: MAGLGLGSAVPVWLAEDDLGCIICQGLLDWPATLPCGHSFCRHCLEALWGARDARRWACPTCRQGAAQQPHLRKNTLLQDLADKYRRAAREIQAGSDPAHCPCPGSSSLSSAAARPRRRPELQRVAVEKSITEVAQELTELVEHLVDIVRSLQNQRPLSESGPDNELSILGKAFSSGVDLSMASPKLVTSDTAAGKIRDILHDLEEIQEKLQESVTWKEAPEAQMQGELLEAPSSSSCPLPDQSHPALRRASRFAQWAIHPTFNLKSLSCSLEVSKDSRTVTVSHRPQPYRWSCERFSTSQVLCSQALSSGKHYWEVDTRNCSHWAVGVASWEMSRDQVLGRTMDSCCVEWKGTSQLSAWHMVKETVLGSDRPGVVGIWLNLEEGKLAFYSVDNQEKLLYECTISASSPLYPAFWLYGLHPGNYLIIKQVKV
modifications: lentiviral expression
notes: as for B1
As to B2, the “Percent Infected R1” value is listed as 86.2% and the “Z score R1” value was −0.03.

B3: RNF103: human RING type E3 ligase expressed from lentiviral vector (protein, UniProt O00237 1-685, looked up)
E3 ubiquitin-protein ligase …: MWLKLFFLLLYFLVLFVLARFFEAIVWYETGIFATQLVDPVALSFKKLKTILECRGLGYSGLPEKKDVRELVEKSGDLMEGELYSALKEEEASESVSSTNFSGEMHFYELVEDTKDGIWLVQVIANDRSPLVGKIHWEKMVKKVSRFGIRTGTFNCSSDPRYCRRRGWVRSTLIMSVPQTSTSKGKVMLKEYSGRKIEVEHIFKWITAHAASRIKTIYNAEHLKEEWNKSDQYWLKIYLFANLDQPPAFFSALSIKFTGRVEFIFVNVENWDNKSYMTDIGIYNMPSYILRTPEGIYRYGNHTGEFISLQAMDSFLRSLQPEVNDLFVLSLVLVNLMAWMDLFITQGATIKRFVVLISTLGTYNSLLIISWLPVLGFLQLPYLDSFYEYSLKLLRYSNTTTLASWVRADWMFYSSHPALFLSTYLGHGLLIDYFEKKRRRNNNNDEVNANNLEWLSSLWDWYTSYLFHPIASFQNFPVESDWDEDPDLFLERLAFPDLWLHPLIPTDYIKNLPMWRFKCLGVQSEEEMSEGSQDTENDSESENTDTLSSEKEVFEDKQSVLHNSPGTASHCDAEACSCANKYCQTSPCERKGRSYGSYNTNEDMEPDWLTWPADMLHCTECVVCLENFENGCLLMGLPCGHVFHQNCIVMWLAGGRHCCPVCRWPSYKKKQPYAQHQPLSNDVPS
modifications: lentiviral expression
notes: as for B1
Turning to B3, the “Percent Infected R1” value turned out to be 96.9% and the “Z score R1” value worked out at 0.11.

B4: RNF182: human RING type E3 ligase expressed from lentiviral vector (protein, UniProt Q8N6D2 1-247, looked up)
E3 ubiquitin-protein ligase …: MASQPPEDTAESQASDELECKICYNRYNLKQRKPKVLECCHRVCAKCLYKIIDFGDSPQGVIVCPFCRFETCLPDDEVSSLPDDNNILVNLTCGGKGKKCLPENPTELLLTPKRLASLVSPSHTSSNCLVITIMEVQRESSPSLSSTPVVEFYRPASFDSVTTVSHNWTVWNCTSLLFQTSIRVLVWLLGLLYFSSLPLGIYLLVSKKVTLGVVFVSLVPSSLVILMVYGFCQCVCHEFLDCMAPPS
As to B4, the “Percent Infected R1” value was 97.9% and the “Z score R1” value turned out to be 0.12.

B5: RFPL3: human RING type E3 ligase expressed from lentiviral vector (protein, UniProt O75679 1-317, looked up)
Ret finger protein-like 3: MKRLSLVTTNRLSPQGNFLPLCTFPLAVDMAALFQEASSCPVCSDYLEKPMSLECGCTVCLKCINSLQKEPHGEDLLCCCCSMVSQRNKIRPNRQLERLVSHIKELEPKLKKILQMNPRMRKFQVDMTLDADTANNFLLISDDLRSVRSGLITQNRQDLAERFDVSVCILGSPRFTCGRHYWEVDVGTSTEWDLGVCRESVHCKGKIQLTTELGFWTVSLRDGSRLSASTVPLTFLLVDRKLQRVGIFLDMGMQNVSFFDAESGSHVYTFRSVSAEEPLRPFLAPSIPPNGDQGVLSICPLMNSGTTDAPVRPGEAK
modifications: lentiviral expression
notes: as for B1
For B5, the “Percent Infected R1” value is reported as 78.3% and the “Z score R1” value is reported as −0.13.

B6: RNF112: human RING type E3 ligase expressed from lentiviral vector (protein, UniProt Q9ULX5 1-631, looked up)
RING finger protein 112: MPRPALSVTSFCHRLGKRERKQSFMGNSGNSWSHTPFPKLELGLGPQPMAPRELPTCSICLERLRDPISLDCGHDFCIRCFSTHRLPGCEPPCCPECRKICKQKRGLRSLGEKMKLLPQRPLPPALQETCPVRAEPLLLVRINASGGLILRMGAINRCLKHPLARDTPVCLLAVLGEQHSGKSFLLNHLLQGLPGLESGEGGRPRGGEASLQGCRWGANGLARGIWMWSHPFLLGKEGKKVAVFLVDTGDAMSPELSRETRIKLCALTTMLSSYQILSTSQELKDTDLDYLEMFVHVAEVMGKHYGMVPIQHLDLLVRDSSHPNKAGQGHVGNIFQRLSGRYPKVQELLQGKRARCCLLPAPGRRRMNQGHASPGDTDDDFRHLLGAYVSDVLSAAPQHAKSRCQGYWNEGRAVARGDRRLLTGQQLAQEIKNLSGWMGRTGPGFTSPDEMAAQLHDLRKVEAAKREFEEYVRQQDVATKRIFSALRVLPDTMRNLLSTQKDAILARHGVALLCKGRDQTLEALEAELQATAKAFMDSYTMRFCGHLAAVGGAVGAGLMGLAGGVVGAGMAAAALAAEAGMVAAGAAVGATGAAVVGGGVGAGLAATVGCMEKEEDERLLEGDREPLLQEE
modifications: lentiviral expression
notes: as for B1
For the molecule B6, the “Percent Infected R1” value is listed as 86.6% and the “Z score R1” value is −0.03.

B7: RNF166: human RING type E3 ligase expressed from lentiviral vector (protein, UniProt Q96A37 1-237, looked up)
E3 ubiquitin-protein ligase …: MAMFRSLVASAQQRQPPAGPAGGDSGLEAQYTCPICLEVYHRPVAIGSCGHTFCGECLQPCLQVPSPLCPLCRLPFDPKKVDKATHVEKQLSSYKAPCRGCNKKVTLAKMRVHISSCLKVQEQMANCPKFVPVVPTSQPIPSNIPNRSTFACPYCGARNLDQQELVKHCVESHRSDPNRVVCPICSAMPWGDPSYKSANFLQHLLHRHKFSYDTFVDYSIDEEAAFQAALALSLSEN
modifications: lentiviral expression
notes: as for B1
For B7, the “Percent Infected R1” value was 94.5% and the “Z score R1” value amounted to 0.08.

B8: RNF145: human RING type E3 ligase expressed from lentiviral vector (protein, UniProt Q96MT1 1-663, looked up)
RING finger protein 145: MAAKEKLEAVLNVALRVPSIMLLDVLYRWDVSSFFQQIQRSSLSNNPLFQYKYLALNMHYVGYILSVVLLTLPRQHLVQLYLYFLTALLLYAGHQISRDYVRSELEFAYEGPMYLEPLSMNRFTTALIGQLVVCTLCSCVMKTKQIWLFSAHMLPLLARLCLVPLETIVIINKFAMIFTGLEVLYFLGSNLLVPYNLAKSAYRELVQVVEVYGLLALGMSLWNQLVVPVLFMVFWLVLFALQIYSYFSTRDQPASRERLLFLFLTSIAECCSTPYSLLGLVFTVSFVALGVLTLCKFYLQGYRAFMNDPAMNRGMTEGVTLLILAVQTGLIELQVVHRAFLLSIILFIVVASILQSMLEIADPIVLALGASRDKSLWKHFRAVSLCLFLLVFPAYMAYMICQFFHMDFWLLIIISSSILTSLQVLGTLFIYVLFMVEEFRKEPVENMDDVIYYVNGTYRLLEFLVALCVVAYGVSETIFGEWTVMGSMIIFIHSYYNVWLRAQLGWKSFLLRRDAVNKIKSLPIATKEQLEKHNDICAICYQDMKSAVITPCSHFFHAGCLKKWLYVQETCPLCHCHLKNSSQLPGLGTEPVLQPHAGAEQNVMFQEGTEPPGQEHTPGTRIQEGSRDNNEYIARRPDNQEGAFDPKEYPHSAKDEAHPVESA
For the molecule B8, the “Percent Infected R1” value is 94.2% and the “Z score R1” value is on record as 0.07.

B9: RSPRY1: human RING type E3 ligase expressed from lentiviral vector (protein, UniProt Q96DX4 17-576, looked up)
RING finger and SPRY …: QGLLLTLEEHIAHFLGTGGAATTMGNSCICRDDSGTDDSVDTQQQQAENSAVPTADTRSQPRDPVRPPRRGRGPHEPRRKKQNVDGLVLDTLAVIRTLVDNDQEPPYSMITLHEMAETDEGWLDVVQSLIRVIPLEDPLGPAVITLLLDECPLPTKDALQKLTEILNLNGEVACQDSSHPAKHRNTSAVLGCLAEKLAGPASIGLLSPGILEYLLQCLKLQSHPTVMLFALIALEKFAQTSENKLTISESSISDRLVTLESWANDPDYLKRQVGFCAQWSLDNLFLKEGRQLTYEKVNLSSIRAMLNSNDVSEYLKISPHGLEARCDASSFESVRCTFCVDAGVWYYEVTVVTSGVMQIGWATRDSKFLNHEGYGIGDDEYSCAYDGCRQLIWYNARSKPHIHPCWKEGDTVGFLLDLNEKQMIFFLNGNQLPPEKQVFSSTVSGFFAAASFMSYQQCEFNFGAKPFKYPPSMKFSTFNDYAFLTAEEKIILPRHRRLALLKQVSIRENCCSLCCDEVADTQLKPCGHSDLCMDCALQLETCPLCRKEIVSRIRQISHIS
On to B9, for which the “Percent Infected R1” value is 91.4% and the “Z score R1” value is given as 0.04.

B10: RCHY1: human RING type E3 ligase expressed from lentiviral vector; listed twice (protein, UniProt Q96PM5 1-261, looked up)
RING finger and CHY zinc …: MAATAREDGASGQERGQRGCEHYDRGCLLKAPCCDKLYTCRLCHDNNEDHQLDRFKVKEVQCINCEKIQHAQQTCEECSTLFGEYYCDICHLFDKDKKQYHCENCGICRIGPKEDFFHCLKCNLCLAMNLQGRHKCIENVSRQNCPICLEDIHTSRVVAHVLPCGHLLHRTCYEEMLKEGYRCPLCMHSALDMTRYWRQLDDEVAQTPMPSEYQNMTVDILCNDCNGRSTVQFHILGMKCKICESYNTAQAGGRRISLDQQ
As for B10, the “Percent Infected R1” value was 97.6% and 91.2%; the “Z score R1” value is 0.11 and 0.03.
